Data on 1 substance can be found in patent US9303249B2, “High concentration α-glucosidase compositions for the treatment of Pompe disease” (Amicus Therapeutics, Inc., priority 2012, dated 2016).

The series in a line: Solubility of Lumizyme® in the presence of 1-DNJ-HCl and excipients (Example 12). Format: physicochemical. Here is the method:
A vial of Lumizyme® containing 52.5 mg protein, 210 mg mannitol, 0.5 mg polysorbate 80, 9.9 mg Na2HPO4×7H2O, and 31.2 mg NaH2PO4×H2O was dissolved in a minimal volume of water (1 mL added) yielding 1.2 mL of protein solution. Five 240-μL aliquots (each containing 10.5 mg protein) were transferred to Amicon Ultra 0.5 mL 30 kDa cutoff centrifugal filter devices and centrifuged for 10 min at 14,000×g in an Eppendorf centrifuge to obtain about 50 μL of retentate.
The original excipients present in the composition, i.e., mannitol and polysorbate 80 were exchanged for new excipients to test protein solubility (keeping the same buffer conditions). The following excipient solutions were prepared for the exchange using the original phosphate buffer:
For exchanging excipients, 5.2 mg Na2HPO4 and 27.1 mg NaH2PO4 were dissolved in 10.3 mL water to prepare the washing/excipient exchange phosphate buffer of approximately 26 mM. A volume of 8 mL of the buffer for excipient exchange was supplemented with 160 mg/mL of the small molecule ligand (to prepare excipient 1, 3, 4 and 5 solutions), while 2 mL was supplemented with 32 mg/mL ligand for excipient 2 (100 mM Arginine). Each of the excipients were dissolved in 2 mL of this buffer at the concentrations listed above.
An excipient solution was added to each separate filter device to achieve a total volume of 0.5 mL. Each filter device was centrifuged for 15 min at 14,000×g in a bench top Eppendorf centrifuge to retain approximately 25 μL. The units were re-filled with the same excipient solution to 0.5 mL and centrifuged again (this process was repeated 2 times). This procedure efficiently replaced mannitol and polysorbate 80 with excipients described above, diluting the original constituents by about 1:1000. All filtrates for each excipient were collected and examined for any protein leaks through the filter.
Each centrifugal filter device was inverted in a clean tube, and the concentrated protein solution was collected from each filter device by centrifugation for 2 min at 1000×g. The volume of each sample was determined (66 μL, corresponding to a target protein concentration of 160 mg/mL), and it was confirmed that no visible precipitate was observable in each sample. Samples were transferred back to their respective filter devices and centrifuged for an additional 5 min Samples were then collected by inversion of the filters into clean tubes and centrifuging for 2 min at 1000×g to yield about 37 μL of retentate (corresponding to >280 mg/mL protein based on a total initial concentration of 10.5 mg protein).
The samples were vortexed and incubated for 1 hr at room temperature to equilibrate liquid and solid phases followed by centrifugation for 10 min at 14,000×g. Again, no visible precipitate was observed. Two-three 10 μL aliquots were taken from the supernatant of each sample (depending on available volume of the liquid phase), and diluted 1:1000 in two steps. Protein concentration was measured by UV absorbance at 280 nm, and the maximum protein solubility was calculated according to a highly reproducible calibration curve. The calibration curve was prepared by dissolving 6.8 mg of Myozyme® (alglucosidase alpha) lyophilized powder (containing 1.16 mg protein) in 1.16 mL of water followed by a serial dilution in deionized water. Absorbance was measured at 280 nm in a 1 cm light-pass quartz semi-micro cuvette using 0.5 mL aliquots.

On to “Lumizyme®: alglucosidase alfa, recombinant human acid α-glucosidase from Genzyme Corporation”, for which the Protein solubility amounted to 201 mg/mL (Arginine 100 mM, 1-DNJ-HCl 32 mg/mL); 242 mg/mL (Arginine + Glutamic acid 50 mM + 50 mM, 1-DNJ-HCl 160 mg/mL); 114 mg/mL (Gamma-cyclodextrin 10% (w/v), 1-DNJ-HCl 160 mg/mL); 158 mg/mL (PEG400 5% (w/v), 1-DNJ-HCl 160 mg/mL); 195 mg/mL (Proline 250 mM, 1-DNJ-HCl 160 mg/mL).
